Molecular target: IGF-1R, endogenous, on cultured cells (HT-1080, Colo205, peripheral blood fibrocytes) (human, UniProt P08069 31-1367)
Test: cell-based or functional assay

Chain of IGF-1R, endogenous, on cultured cells (HT-1080, Colo205, peripheral blood fibrocytes) (P08069 31-1367): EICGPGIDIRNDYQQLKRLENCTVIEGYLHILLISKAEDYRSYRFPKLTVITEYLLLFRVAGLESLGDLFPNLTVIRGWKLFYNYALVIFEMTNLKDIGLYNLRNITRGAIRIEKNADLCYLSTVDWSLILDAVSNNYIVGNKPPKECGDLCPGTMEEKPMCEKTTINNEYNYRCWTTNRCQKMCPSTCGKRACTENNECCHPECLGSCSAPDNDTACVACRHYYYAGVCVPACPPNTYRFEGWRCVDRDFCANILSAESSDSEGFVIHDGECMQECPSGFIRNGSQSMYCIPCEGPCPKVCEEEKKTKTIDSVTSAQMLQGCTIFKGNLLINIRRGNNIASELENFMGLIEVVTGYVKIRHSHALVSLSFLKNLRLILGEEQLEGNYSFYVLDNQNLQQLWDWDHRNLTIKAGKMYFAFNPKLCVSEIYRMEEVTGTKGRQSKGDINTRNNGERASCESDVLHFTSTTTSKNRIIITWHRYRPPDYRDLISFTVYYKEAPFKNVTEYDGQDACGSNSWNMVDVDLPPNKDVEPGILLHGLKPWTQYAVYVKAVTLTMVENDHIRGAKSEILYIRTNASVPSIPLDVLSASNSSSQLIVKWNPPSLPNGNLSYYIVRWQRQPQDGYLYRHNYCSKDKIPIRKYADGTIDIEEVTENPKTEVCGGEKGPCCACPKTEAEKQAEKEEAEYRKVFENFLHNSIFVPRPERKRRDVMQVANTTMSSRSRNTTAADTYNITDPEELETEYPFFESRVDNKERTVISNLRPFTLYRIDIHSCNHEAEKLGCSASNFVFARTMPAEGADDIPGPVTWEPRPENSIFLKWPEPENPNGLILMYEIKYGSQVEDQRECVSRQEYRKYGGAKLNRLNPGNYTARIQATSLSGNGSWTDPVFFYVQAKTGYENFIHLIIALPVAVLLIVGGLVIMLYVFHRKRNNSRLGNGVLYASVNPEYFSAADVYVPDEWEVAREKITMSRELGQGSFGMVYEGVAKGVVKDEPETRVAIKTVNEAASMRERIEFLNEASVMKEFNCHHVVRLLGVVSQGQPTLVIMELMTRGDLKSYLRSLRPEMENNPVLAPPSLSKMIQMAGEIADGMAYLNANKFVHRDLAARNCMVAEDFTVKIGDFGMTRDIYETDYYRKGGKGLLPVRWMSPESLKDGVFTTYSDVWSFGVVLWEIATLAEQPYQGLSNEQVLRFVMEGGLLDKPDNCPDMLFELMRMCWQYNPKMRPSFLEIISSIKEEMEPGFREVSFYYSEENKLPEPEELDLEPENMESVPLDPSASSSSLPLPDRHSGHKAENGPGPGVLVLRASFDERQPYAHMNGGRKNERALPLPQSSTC

B1: vectorized Teprotumumab (secreted from HEK-293 cells transfected with teprotumumab plasmid construct (antibody, V domains shown)
VH: QVELVESGGGVVQPGRSQRLSCAASGFTFSSYGMHWVRQAPGKGLEWVAIIWFDGSSTYYADSVRGRFTISRDNSKNTLYLQMNSLRAEDTAVYFCARELGRRYFDLWGRGTLVSVSS
VL: EIVLTQSPATLSLSPGERATLSCRASQSVSSYLAWYQQKPGQAPRLLIYDASKRATGIPARFSGSGSGTDFTLTISSLEPEDFAVYYCQQRSKWPPWTFGQGTKVESKR
With B1 the “reduction in IGF-1R activation (IGF-1R phosphorylation) by IGF in HT-1080 cells, MSD Insulin Signaling Panel (Phospho Protein)” value was 4 fold.

From US20250084434A1 (KRIYA THERAPEUTICS, published 2025)
